# Assay results: the supplement of paper PMC7125110
# ± gives the standard error. For part of these data: Variants at the floor of the assay were thinned out.
# B1: glmS ribozyme (parent)
# chain: AUAAAAGCGCCAGAACUACAGAAAUGUAGUUGACGAGGAGGAGGUUUAUCGAAUUUUCGGCGGAUGCCUCCAAA
# Tests used:
# Conditions in all cases: with glucosamine-6-phosphate
# glucosamine-6-phosphate [1] = variants of: B1; experiment: kcat; higher = faster cleavage; RNA array
# Procedure, shortened: (§1)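 Over ~14 h at 37 °C, tiles were imaged as glucosamine-6-phosphate (40 μM to 10 mM) in HEPES/KCl/Mg(OAc)2 buffer flowed across sequenced MiSeq chips. The chips carried barcoded ribozyme variants transcribed in situ by E. coli RNA polymerase and tracked with a hybridised Cy3 probe. After normalisation to baseline and to non-cleaving reference variants, one- or two-exponential decay fits of per-tile medians gave kobs. kcat and KM followed from weighted Michaelis–Menten fits across concentrations.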
# glucosamine-6-phosphate [2] = variants of: B1; experiment: KM; higher = weaker cofactor use; RNA array
# Procedure, shortened: as §1
# glucosamine-6-phosphate [3] = variants of: B1; experiment: self-cleavage kobs at 10000 uM GlcN6P; higher = faster cleavage; RNA array
# Procedure, shortened: as §1
# glucosamine-6-phosphate [4] = variants of: B1; experiment: self-cleavage kobs at 160 uM GlcN6P; higher = faster cleavage; RNA array
# Procedure, shortened: as §1
# glucosamine-6-phosphate [5] = variants of: B1; experiment: self-cleavage kobs at 640 uM GlcN6P; higher = faster cleavage; RNA array
# Procedure, shortened: as §1
# glucosamine-6-phosphate [6] = variants of: B1; experiment: self-cleavage kobs at 2500 uM GlcN6P; higher = faster cleavage; RNA array
# Procedure, shortened: as §1
# glucosamine-6-phosphate [7] = variants of: B1; experiment: self-cleavage kobs at 40 uM GlcN6P; higher = faster cleavage; RNA array
# Procedure, shortened: as §1
Variant,kcat (glucosamine-6-phosphate [1]),KM (glucosamine-6-phosphate [2]),self-cleavage kobs at 10000 uM GlcN6P (glucosamine-6-phosphate [3]),self-cleavage kobs at 160 uM GlcN6P (glucosamine-6-phosphate [4]),self-cleavage kobs at 640 uM GlcN6P (glucosamine-6-phosphate [5]),self-cleavage kobs at 2500 uM GlcN6P (glucosamine-6-phosphate [6]),self-cleavage kobs at 40 uM GlcN6P (glucosamine-6-phosphate [7])
AUAAAAGCGCCAGAGCUACAGAAAUGUAGUUGACGAGGAGGAGGUUUAUCUAAUUUUCGGCGGAUGCCUCAAAA [A15G G51U C71A],1.45e-05 ± 1.7e-06 s⁻¹,510 ± 210 µM,< 1e-05 s⁻¹,–,–,–,–
AUAAAAGCGCCAGAGCUACAGAAAUGUAGUUGACGAGGAGCAGGUUUAUCGAAUUUUCGGCGGAUGCCUCCAAA [A15G G41C],0.000647 ± 4.6e-05 s⁻¹,2170 ± 310 µM,0.000544 ± 6.2e-05 s⁻¹,4.44e-05 ± 1.5e-05 s⁻¹,0.000149 ± 2.7e-05 s⁻¹,0.00032 ± 5.7e-05 s⁻¹,–
AUAAAAGCGCCAGAGCUACAGAAAUGUACUCGACGAGGUGGAGGUUUAUCGAAUUUUCGGCGGAUGCCUCCAAA [A15G G29C U31C A39U],0.000143 ± 2.1e-06 s⁻¹,4650 ± 160 µM,9.79e-05 ± 1.4e-05 s⁻¹,–,–,5.02e-05 ± 1.3e-05 s⁻¹,–
AUAAAAGCGCCAGAGCUACAGAAAUGUAGUUGACGAGGAGGAGAUUUAUCGAAUUUUCGGCGGAUGCCUCCAAA [A15G G44A],0.000572 ± 0.00011 s⁻¹,2050 ± 620 µM,0.00044 ± 9.5e-05 s⁻¹,2.81e-05 ± 1.2e-05 s⁻¹,0.000152 ± 2.1e-05 s⁻¹,0.000327 ± 5.5e-05 s⁻¹,–
AUAAAAGCGCCAGAGCUACAGAAAUGUAGUUGACGAGGAGGAGUUUUAUCGAAUUUUCGGCGGAUGCCUCCAAA [A15G G44U],0.00046 ± 2.8e-05 s⁻¹,1550 ± 270 µM,0.0004 ± 3.1e-05 s⁻¹,3.52e-05 ± 1.5e-05 s⁻¹,0.000151 ± 2.5e-05 s⁻¹,0.000252 ± 6.3e-05 s⁻¹,–
AUAAAAGCGCCAGAGCUACAGAAAUGUAGUUUACGAGGAGGAGGUUUAUCGAAUUUUCGGCGGAUGCCUCCAAA [A15G G32U],0.00117 ± 2.6e-05 s⁻¹,2990 ± 100 µM,0.000917 ± 0.00013 s⁻¹,6.02e-05 ± 1.1e-05 s⁻¹,0.000208 ± 2.6e-05 s⁻¹,0.000525 ± 5.2e-05 s⁻¹,–
AUAAAAGCGCCAGAGCUACAGAAAUGUAGUUGACGAGGAGGAGGUUUAUCGAAUUUUCUGCGGAUGUCUCCAAA [A15G G59U C67U],5.74e-05 ± 6.3e-06 s⁻¹,2230 ± 1000 µM,4.69e-05 ± 1.5e-05 s⁻¹,–,–,–,–
AUAAAAGCGCCAGAGCUACAGAAAUGUAGUUGACGAGGAGGAGGGUUAUCGAAUUUUCGGCGGAUGCCUCCAAA [A15G U45G],0.00832 ± 0.00089 s⁻¹,1730 ± 260 µM,0.00741 ± 0.001 s⁻¹,0.000643 ± 9.8e-05 s⁻¹,0.0024 ± 0.00037 s⁻¹,0.0044 ± 0.00084 s⁻¹,0.000211 ± 3.4e-05 s⁻¹
AUAAAAGCGCCAGAGCUACAGAAAUGUAGUUGACGAGGAGGAGGUUUAUCGAAUCUUCGGCGGAUGCCUCCAAA [A15G U55C],0.0256 ± 0.0046 s⁻¹,1870 ± 410 µM,0.0242 ± 0.0051 s⁻¹,0.00212 ± 0.00033 s⁻¹,0.0055 ± 0.0011 s⁻¹,0.0125 ± 0.005 s⁻¹,0.000564 ± 7.9e-05 s⁻¹
AUAAAAGCGCCAGAGCUACAGAAAUGUAGUUGACGAGGAGGAGGUUUAUCGAACUUUCGGCGGAUGCCUCCAAA [A15G U54C],0.0142 ± 0.0059 s⁻¹,–,0.0181 ± 0.0046 s⁻¹,0.0021 ± 0.00098 s⁻¹,–,–,0.000969 ± 0.00018 s⁻¹
AUAAAAGCGCCAGAGCUACAGAAAUGUAGUUGACGAUGAGGAGGUUUAUCGAAAAUUCGCCGGAUGCGUCCAAA [A15G G37U U54A U55A G60C C68G],2.16e-05 ± 6.5e-06 s⁻¹,–,–,–,–,–,–
AUAAAAGCGCCAGAGCUACAGAAAUGUAGUUGACGAGGACGAGGUUUAUCGAAUUUUCGGCGGAUGCCUCCAAA [A15G G40C],0.00522 ± 0.0011 s⁻¹,1800 ± 590 µM,0.00506 ± 0.00049 s⁻¹,0.000354 ± 6.3e-05 s⁻¹,0.00122 ± 0.00017 s⁻¹,0.0027 ± 0.00028 s⁻¹,0.000151 ± 1.6e-05 s⁻¹
AUAAAAGCGCCAGAGCUACAGAAAUGUAGUUGACGAGGAGGAGGUUGAUCGAAUUUUCGGCGGAUGCCUCCAAA [A15G U47G],0.00418 ± 0.0015 s⁻¹,–,0.00738 ± 0.0014 s⁻¹,0.000812 ± 0.00016 s⁻¹,0.00171 ± 0.00031 s⁻¹,0.00298 ± 0.00072 s⁻¹,0.000326 ± 5.4e-05 s⁻¹
AUAAAAGCGCCAGAGCUACAGAAAUGUAGUUGACGAGGAGGAGGUCUAUCGAAUUUUCGGCGGAUGCCUCCAAA [A15G U46C],0.00378 ± 0.0014 s⁻¹,1440 ± 680 µM,0.00388 ± 0.0013 s⁻¹,0.000465 ± 0.00016 s⁻¹,0.000897 ± 0.00029 s⁻¹,–,0.000112 ± 2.9e-05 s⁻¹
AUAAAAGCGCCAGAGCUACAGAAAUGUAGUUGACGAGGAGGAGGUUGAUCGAAUAUUCGGCGGAUGCCUCCAAA [A15G U47G U55A],0.0098 ± 0.003 s⁻¹,1860 ± 850 µM,0.00887 ± 0.003 s⁻¹,–,0.00364 ± 0.0011 s⁻¹,0.00474 ± 0.0016 s⁻¹,0.000187 ± 5.9e-05 s⁻¹
